# Results: US20100086958A1, “NOVEL ENZYME” (priority 2008, published 2010)
# Like-named read-outs stand apart in the source and are kept apart here.
# What was measured:
# [1] = Steady state kinetics for NADP^+ (FDH-catalysed formate oxidation); format: biochemical; settings: cofactor NADP^+, 0.18M formate
# Procedure: (§1) BcenFDH1 (Bsp184FDH) and BspFDH2 (Bsp383FDH) catalyzed oxidation of formate to CO2 was monitored by UV/Vis spectrophotometry in a 96-well plate format. A series of eight solutions of formate (0-200 mM) were prepared by successive dilutions of a stock solution of 0.5 M sodium formate in 0.1 M sodium phosphate buffer, pH 7.0. From this series, 170 μL was transferred into wells of the 96-well plate. 10 μL of the FDHs from a stock solution (64.1 μM for BcenFDH1 (Bsp184FDH) and 78.0 μM for BspFDH2 (Bsp383FDH)) were added into each well and equilibrated for 3 min at 30° C. The reaction was initiated by addition of 20 μL of NAD^+ or NADP^+ solution from a freshly prepared stock (10 mM) using an 8-channel pipette. The plate was then immediately placed into the plate reader. The plate was shaken for 5 s to ensure thorough mixing, and then time-based measurements were recorded every 15 s for 10 min. The rate of formate oxidation was calculated using an extinction coefficient of 3.38 mM^−1 (for 200 μL), which was determined using NADH standards. Km and Vmax values were obtained by non-linear regression to the Michaelis-Menten equation (Eq.1 below) using Origin v7 (Microcal Software Inc.).
# (§2) Similar procedure were used for determination of Michaelis-Menten parameters for NAD^+ and NADP^+. A series of eight solutions of cofactor (0-75 mM) were prepared by successive dilutions of stock solutions. […] of sodium formate solutions (180 mM in well) were transferred into wells of the 96-well plate. 10 μL of the FDHs from a stock solution (64.1 μM for BcenFDH1 (Bsp184FDH) and 78.0 μM for BspFDH2 (Bsp383FDH)) were added into each well and equilibrated for 3 min at 30° C. The reaction was initiated by addition of 20 μL of NAD^+ or NADP^+ solutions using an 8-channel pipette. The plate was then immediately placed into the plate reader. The plate was shaken for 5 s to ensure thorough mixing, and then time-based measurements were recorded every 15 s for 10 min. The rate of formate oxidation was calculated using an extinction coefficient of 3.38 mM^−1 (for 200 μL), which was determined using NADH standards. Km and Vmax values were obtained by non-linear regression to the Michaelis-Menten equation as before.
# [2] = Steady state kinetics for NAD^+ (FDH-catalysed formate oxidation); format: biochemical
# Procedure: as §1, §2
# [3] = Steady state kinetics for formate oxidation; format: biochemical; settings: formate oxidation with NAD^+
# Procedure: as §1
# [4] = cited from earlier work; for activity with NADP^+ / activity with NAD^+: unit = μmol formate oxidized per min, literature
# [5] = cited from earlier work; for Km: read-out: Km NAD^+
# [6] = Serov et al. (2002), cited from earlier work; for Km: read-out: Km NADP^+
# [7] = 0.25 M formate, Serov et al. (2002)
# [8] = 0.5 M formate, Serov et al. (2002)
molecule,measurement,setting,value
"CmetFDH: NADH-dependent wild-type FDH from Candida methylica, Seq ID No: 6 (protein, listed as Candida methylica) MKIVLVLYDAGKHAADEEKLYGCTENKLGIANWLKDQGHELITTSDKEGETSELDKHIPDADIIITTPFHPAYITKERLDKAKNLKSVVVAGVGSDHIDLDYINQTGKKISVLEVTGSNVVSVAEHVVMTMLVLVRNFVPAHEQIINHDWEVAAIAKDAYDIEGKTIATIGAGRIGYRVLERLLPFNPKELLYYDYQALPKEAEEKVGARRVENIEELVAQADIVTVNAPLHAGTKGLINKELLSKFKKGAWLVNTARGAICVAEDVAAALESGQLRGYGGDVWFPQPAPKDHPWRDMRNKYGAGNAMTPHYSGTTLDAQTRYAEGTKNILESFFTGKFDYRPQDIILLNGEYVTKAYGKHDKK",Km,[1],7 ± 1.4 mM
same,kcat NADP^+,[1],0.005 ± 0 s⁻¹
same,"formate oxidation, times more effective with NAD^+ than with NADP^+",[2],1.7×10^4 times
same,Km,"[2]; cofactor NAD^+, 0.18M formate",0.2 mM
same,kcat NAD^+,"[2]; cofactor NAD^+, 0.18M formate",1.67 ± 0.033 s⁻¹
same,Km,[3],8.29 ± 1 mM
same,kcat,[3],6.9875 ± 0.2928 s⁻¹
"C. bodinii D195S/Y196H/K356T: D195S/Y196H/K356T mutant of C. bodinii FDH (protein, UniProt O13437 1-364, looked up, variant D195S Y196H K356T) Formate dehydrogenase: MKIVLVLYDAGKHAADEEKLYGCTENKLGIANWLKDQGHELITTSDKEGETSELDKHIPDADIIITTPFHPAYITKERLDKAKNLKLVVVAGVGSDHIDLDYINQTGKKISVLEVTGSNVVSVAEHVVMTMLVLVRNFVPAHEQIINHDWEVAAIAKDAYDIEGKTIATIGAGRIGYRVLERLLPFNPKELLYYSHQALPKEAEEKVGARRVENIEELVAQADIVTVNAPLHAGTKGLINKELLSKFKKGAWLVNTARGAICVAEDVAAALESGQLRGYGGDVWFPQPAPKDHPWRDMRNKYGAGNAMTPHYSGTTLDAQTRYAEGTKNILESFFTGKFDYRPQDIILLNGEYVTTAYGKHDKK",activity with NADP^+,[4],0.36 U/mg
same,activity with NAD^+,[4],1.3 U/mg
"C. bodinii D195S: D195S mutant of C. bodinii FDH (protein, UniProt O13437 1-364, looked up, variant D195S) Formate dehydrogenase: MKIVLVLYDAGKHAADEEKLYGCTENKLGIANWLKDQGHELITTSDKEGETSELDKHIPDADIIITTPFHPAYITKERLDKAKNLKLVVVAGVGSDHIDLDYINQTGKKISVLEVTGSNVVSVAEHVVMTMLVLVRNFVPAHEQIINHDWEVAAIAKDAYDIEGKTIATIGAGRIGYRVLERLLPFNPKELLYYSYQALPKEAEEKVGARRVENIEELVAQADIVTVNAPLHAGTKGLINKELLSKFKKGAWLVNTARGAICVAEDVAAALESGQLRGYGGDVWFPQPAPKDHPWRDMRNKYGAGNAMTPHYSGTTLDAQTRYAEGTKNILESFFTGKFDYRPQDIILLNGEYVTKAYGKHDKK",activity with NADP^+,[4],0.083 U/mg
same,activity with NAD^+,[4],1.5 U/mg
"C. bodinii D195S/Y196H: D195S/Y196H mutant of C. bodinii FDH (protein, UniProt O13437 1-364, looked up, variant D195S Y196H) Formate dehydrogenase: MKIVLVLYDAGKHAADEEKLYGCTENKLGIANWLKDQGHELITTSDKEGETSELDKHIPDADIIITTPFHPAYITKERLDKAKNLKLVVVAGVGSDHIDLDYINQTGKKISVLEVTGSNVVSVAEHVVMTMLVLVRNFVPAHEQIINHDWEVAAIAKDAYDIEGKTIATIGAGRIGYRVLERLLPFNPKELLYYSHQALPKEAEEKVGARRVENIEELVAQADIVTVNAPLHAGTKGLINKELLSKFKKGAWLVNTARGAICVAEDVAAALESGQLRGYGGDVWFPQPAPKDHPWRDMRNKYGAGNAMTPHYSGTTLDAQTRYAEGTKNILESFFTGKFDYRPQDIILLNGEYVTKAYGKHDKK",activity with NADP^+,[4],0.19 U/mg
same,activity with NAD^+,[4],1.3 U/mg
"PseFDH: FDH from Pseudomonas sp. 101, Seq ID No: 3 (protein, listed as Pseudomonas sp.) MAKVLCVLYDDPVDGYPKTYARDDLPKIDHYPGGQTLPTPKAIDFTPGQLLGSVSGELGLRKYLESNGHTLVVTSDKDGPDSVFERELVDADVVISQPFWPAYLTPERIAKAKNLKLALTAGIGSDHVDLQSAIDRNVTVAEVTYCNSISVAEHVVMMILSLVRNYLPSHEWARKGGWNIADCVSHAYDLEAMHVGTVAAGRIGLAVLRRLAPFDVHLHYTDRHRLPESVEKELNLTWHATREDMYPVCDVVTLNCPLHPETEHMINDETLKLFKRGAYIVNTARGKLCDRDAVARALESGRLAGYAGDVWFPQPAPKDHPWRTMPYNGMTPHISGTTLTAQARYAAGTR",kcat NAD^+,[5]; data from Serov et al. (2002),10.0 ± 0.6 s⁻¹
same,Km,[5]; data from Serov et al. (2002),0.06 ± 0.005 mM
same,"formate oxidation, times more effectively with NAD^+ than with NADP^+",[4]; Tishkov et al. (1991),2400 times
same,activity with NAD^+,[4],6-8 U/mg
"D197A/Y198R SceFDH: D197A/Y198R mutant of S. cerevisiae FDH, data from Serov et al. (2002) (protein, UniProt Q08911 1-376, looked up, variant D197A Y198R) Formate dehydrogenase 1: MSKGKVLLVLYEGGKHAEEQEKLLGCIENELGIRNFIEEQGYELVTTIDKDPEPTSTVDRELKDAEIVITTPFFPAYISRNRIAEAPNLKLCVTAGVGSDHVDLEAANERKITVTEVTGSNVVSVAEHVMATILVLIRNYNGGHQQAINGEWDIAGVAKNEYDLEDKIISTVGAGRIGYRVLERLVAFNPKKLLYYARQELPAEAINRLNEASKLFNGRGDIVQRVEKLEDMVAQSDVVTINCPLHKDSRGLFNKKLISHMKDGAYLVNTARGAICVAEDVAEAVKSGKLAGYGGDVWDKQPAPKDHPWRTMDNKDHVGNAMTVHISGTSLDAQKRYAQGVKNILNSYFSKKFDYRPQDIIVQNGSYATRAYGQKK",kcat NADP^+,[6]; 0.25 M formate,0.13 ± 0.01 s⁻¹
same,Km,[6]; 0.25 M formate,4.5 ± 0.5 mM
same,kcat NADP^+,[6]; 0.5 M formate,0.16 ± 0.02 s⁻¹
same,Km,[6]; 0.5 M formate,7.6 ± 0.9 mM
same,kcat NAD^+,[5]; [7],0.095 ± 0.01 s⁻¹
same,Km,[5]; [7],7.6 ± 0.8 mM
same,kcat NAD^+,[5]; [8],0.12 ± 0.02 s⁻¹
same,Km,[5]; [8],8.4 ± 0.9 mM
"SceFDH: FDH from S. cerevisiae, Seq ID No: 4 (protein, listed as Saccharomyces cerevisiae) MSKGKVLLVLYEGGKHAEEQEKLLGCIENELGIRNFIEEQGYELVTTIDKDPEPTSTVDRELKDAEIVITTPFFPAYISRNRIAEAPNLKLCVTAGVGSDHVDLEAANERKITVTEVTGSNVVSVAEHVMATILVLIRNYNGGHQQAINGEWDIAGVAKNEYDLEDKIISTVGAGRIGYRVLERLVAFNPKKLLYYDYQELPAEAINRLNEASKLFNGRGDIVQRVEKLEDMVAQSDVVTINCPLHKDSRGLFNKKLISHMKDGAYLVNTARGAICVAEDVAEAVKSGKLAGYGGDVWDKQPAPKDHPWRTMDNKDHVGNAMTVHISGTSLDAQKRYAQGVKNILNSYFSKKFDYRPQDIIVQN",kcat NAD^+,[5]; data from Serov et al. (2002),6.5 ± 0.4 s⁻¹
same,Km,[5]; data from Serov et al. (2002),0.036 ± 0.005 mM
